Experimental data published in the nanobody polyreactivity screen of Harvey et al. (2022).

Test: yeast display, Sf9 membrane polyspecificity reagent, FACS + sequencing; frameworks hold sequencing errors
Procedure, shortened: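 A nanobody's polyreactivity label depends on the gate it was sorted from. Yeast display cells were stained with 10% biotinylated, detergent-solubilized Sf9 membrane reagent for 1 hour at 4 °C, enriched on streptavidin microbeads and sorted by FACS. The low and high (top ~1%) gates were set on anti-HA fluorescence for expression and streptavidin fluorescence for reagent binding.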

| Sequence | polyreactivity (PSR sort gate) |
| --- | --- |
| QVQLVESGGGLVQAGGRLRLSCAASGGTFVPYAMGWYRQAPGTERELVARISKRGGTTYYADSVKGRFTISRDTAKNTVYLQMNSVKPEDTAVYYCGAVLPARGYYWGEGTQVTVSS | high polyreactivity |
| HVQLQESGGGLVQACGSLRLSCAASGTIFKVVDMGLYRQSPAKEREFVATIGEGGNTYYADSVKGRFTISRDNAKNTVYLQMNSLKPEDTAVYFYEVVMGTSYRYTYWGQGTHVTVSS | low polyreactivity |
| QVQLVESGGGIVQAGGSHRLSCAASGRTFRYNAMGWYRQAPGKERELVAAISGRGSSTYYADSVKGRFTISRDNAKNTVYLQMNSLKPEDTAVYYCAALPASVRRPGWHDYWGQGTQVTVSS | high polyreactivity |
| QVQLVESGGGLVQAGGSLRLSCAASGSTFGQYAMGWYRQAPGKERELVATISSGSTYYADSVKGRFTISRDNAKNTVYLQMNSLKPEDTAVYYCAATRRWYKSKKTFYYWGQGTQVTVSS | high polyreactivity |
| QVQLVESGGGLVQAGGSIRLSCAASGRIFYAYTMGWYRQAPVKERELVAAIRRRGTTYYADSVKGRFTISRDNAKNTVYLQMNSLKPDDTAVYYCAKDALGYRTSSALLGDYWGQGTQVTVSS | high polyreactivity |
| QVQLVESGGGLVQAGGSLRLSCDASGFNFASNDMGWYRPAPGKERELVAAITKGGGRTYYADSVKGRFTISRDNAKNTVYLQMNSLKPEDTAVYYCAARQLIKYDYWGQGTQVTVSS | low polyreactivity |
| QVQLVESGGGLVQAGGCLRLSCAASGRISSSYAMGWYRLAAGKERELVAAITSRGGSTYYADSVKGRFTISRDNAKNTVYLQMNSLKPEDTAVYYCNAPGYLTYDHSYDYWGQGTQVTVSS | low polyreactivity |
| QVQLVESGGGLVQAGGSLRLSCAASGSTFDIYAMGWYRQAPGKERELVAAITFSGGSTYADSVKGRFTISRDNAKNTVYLQMNSLKPEDTAVYYCAVDGGEFSSYGYWGQGTQVTVSS | low polyreactivity |
| QVQLVESGAGLVQAGGSLRLSCAASGRIFTNYVLGWSRQAPGKERELVAAISWTGGRTYYADSVKGRFTISRDYAKNTVYLQMISLKPEDTAVYYCAARARIGTVDYWGQGTQVTVSS | high polyreactivity |
| QVQLVESGGGLVQAGGSLRLSCAASGSIFYSNVMGWYRQAPGQERELVARITDAGSTNYADSVKGRFTISRDNAKHTVYFQMNSLKPEDTAVYYCNARLVIYTFDYWGQGTLVTVSS | low polyreactivity |
| QVQLVESGGGLVQAGGSLRISCADCGSIFEVNAMGWYRPAPGTERELVAAISSGDRTNYADSVKGRFTISRDNAKNTVYLQMNSLKPEDTAVYYCNKGAAWRPFFGPYYNYEYWGQGTQVTVSS | high polyreactivity |
| QVQLVESGGGLVQAGGSLRLSCAASGSIFSPNDMGWYRQAPGKERELVAAITSAGSTYYADSVKGRFTISRDNAKNTVYLQMNSLKPEDTAVYYCAATYISVTDYAYFPLWYGYWGQGTQVTVSS | low polyreactivity |
| QVQLVESGRGLVQAGVSLRLSCAASGRIFTNNAMGLYRQAPGKERELVAAINVSGGRTYYADSVKGRFTISRENAKNTVYLQMNSLKPEDTAVYYCNKVKETYMDYWGQGTQVTVSS | high polyreactivity |
| QVQLQESGGLVQAGGLRLSCAASGSVSYQEAMGWYRQAPGKERELVATISFGANTNYAESVKGRFTISRDNAKISLYLQMNSLQPEDTSLYYWAAECLFDDYYGYWGQGTQVTVSS | low polyreactivity |
| QVQLVESGGGLVQAGGSLRLSCASSGRIIRRNAMGWYRQAPGKERELVASISQGGSTYYADSVKGRFTISRDNAKNTVYLQMNSLKPEDTAVYYCAATLSYYVGVRYDYWGQGTQVTVSS | high polyreactivity |
| LVQLQESGGGLVQAGGSLRLSCAASGSIYKVVDMGLYRQAPAKEREFVATIGEGGNTYYADSVKGRFTISRDNAKNTVYLQMNSLKPEDTAVYYCNDDIGVYAYESDYWGQGTQVTVSS | low polyreactivity |
| QVQLVESGGGLVQAGGSLRLSCAASGSTFPFYAMGWYRQAPGKERELVAAIRYTGNTYYADSVKGRFTISRDNAKNTVYLQMNSLKPEDTAVYYCAADADYWAYGYWGQGTQVTVSS | low polyreactivity |
| QVQLVESGGGLVQAGGSLRLSCAASGRIFGTYVMGWYRPAPGKERELVARITGGGSTNYADSVKGRFTISRDNAKNTVYLEMNSLKPEDTAVYYCARDYGPYLSPEKPAPMDYWGQGTQVTVSS | low polyreactivity |
| QVQLVESGGVLVQAGGSLRLSCAASGRTSKFYAMGWYRPAPGKERELVARITYSGGSTTYADSVKGRFTISRDNAKNTVYLQMNSLKPDDTAVYYFAITSQWLRRYYYWGQGTQVTVSS | high polyreactivity |
| QVQLGESGGGLVQEGGSLRLSCAASGRILSRYAKGWYRQAPGKERELVAAISRSGGSTYYADSVKGRFTISRDNAKNTVYLQMNSLKPEDTAVYYWARDVSLSTGYDYWGQGTQVTVSS | high polyreactivity |
| QVQLVESGGGLVQAGGSLRLSWAASGFTFSVYAMGWYRQAPGKERELVAAISSGGSTNYADSVKGRFTISRDNAKITVYFQMNSLKPEDTAVYYCADSITVGYSNYYYWGQGSQVTVSS | high polyreactivity |
